# Measured values taken from paper PMC7948480, “Enzymatic and structural properties of human glutamine:fructose-6-phosphate amidotransferase 2 (hGFAT2)” (The Journal of Biological Chemistry, 2020).
# B1: recombinant human glutamine:fructose-6-phosphate amidotransferase 2 with a C-terminal 6xHisTag (rhGFAT2-his) (enzyme, UniProt O94808 2-682, looked up)
# chain: CGIFAYMNYRVPRTRKEIFETLIKGLQRLEYRGYDSAGVAIDGNNHEVKERHIQLVKKRGKVKALDEELYKQDSMDLKVEFETHFGIAHTRWATHGVPSAVNSHPQRSDKGNEFVVIHNGIITNYKDLRKFLESKGYEFESETDTETIAKLIKYVFDNRETEDITFSTLVERVIQQLEGAFALVFKSVHYPGEAVATRRGSPLLIGVRSKYKLSTEQIPILYRTCTLENVKNICKTRMKRLDSSACLHAVGDKAVEFFFASDASAIIEHTNRVIFLEDDDIAAVADGKLSIHRVKRSASDDPSRAIQTLQMELQQIMKGNFSAFMQKEIFEQPESVFNTMRGRVNFETNTVLLGGLKDHLKEIRRCRRLIVIGCGTSYHAAVATRQVLEELTELPVMVELASDFLDRNTPVFRDDVCFFISQSGETADTLLALRYCKDRGALTVGVTNTVGSSISRETDCGVHINAGPEIGVASTKAYTSQFISLVMFGLMMSEDRISLQNRRQEIIRGLRSLPELIKEVLSLEEKIHDLALELYTQRSLLVMGRGYNYATCLEGALKIKEITYMHSEGILAGELKHGPLALIDKQMPVIMVIMKDPCFAKCQNALQQVTARQGRPIILCSKDDTESSKFAYKTIELPHTVDCLQGILSVIPLQLLSFHLAVLRGYDVDFPRNLAKSVTVE
# notes: human glutamine:fructose-6-phosphate amidotransferase 2 (hGFAT2), product of the gfpt2 gene; The His tag comes from pET23a after the NotI site; Mostly a tetramer by SEC, with higher oligomers up to octamers; also called rhGFAT-his; source: E. coli Codon plus, soluble fraction, purified (Ni-NTA HisTrap column); not shown: His6, C-terminal, kept
# How the values were obtained:
# [1] = molecular target: the molecule itself; assay: SEC; Superdex 200 column, 20 mM Tris-HCl pH 7.5, 150 mM NaCl, 1 mM DTT, 0.5% NP-40, 1 ml/min; mass estimated from standard proteins
# [2] = molecular target: the molecule itself; assay: cross-linking; 3, 5 or 10 ug of purified rhGFAT2-his in PBS with 1 mM EGS, 30 min, room temperature; stopped with 30 mM Tris-HCl pH 8.0; gradient SDS-PAGE, Coomassie staining
protein,measurement,setting,value
B1,stoichiometry N,[1],≤ 8
same,stoichiometry N,[2],4
